The target in data set [1] is IGFBP-5 (commercially available, upstate biotechnology), P24593.
Data set [2] has as its target IGFBP-5-FLAG protein (full-length IGFBP-5 with the FLAG tag of SEQ ID NO: 12 at the C-terminus), P24593.
Data set [3] deals with IGFBP-3 (commercially available, upstate biotechnology), P17936.

From patent US20040241778 come the findings set out here.

Chain of IGFBP-5 (commercially available, upstate biotechnology), P24593 (P24593 21-272): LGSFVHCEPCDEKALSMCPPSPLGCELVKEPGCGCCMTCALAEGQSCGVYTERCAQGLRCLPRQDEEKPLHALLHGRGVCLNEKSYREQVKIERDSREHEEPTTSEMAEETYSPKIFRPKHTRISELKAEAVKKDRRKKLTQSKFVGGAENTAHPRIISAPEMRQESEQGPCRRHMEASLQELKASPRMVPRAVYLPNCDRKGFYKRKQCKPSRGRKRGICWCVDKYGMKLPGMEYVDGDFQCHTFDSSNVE
Chain of IGFBP-3 (commercially available, upstate biotechnology), P17936 (P17936 28-291): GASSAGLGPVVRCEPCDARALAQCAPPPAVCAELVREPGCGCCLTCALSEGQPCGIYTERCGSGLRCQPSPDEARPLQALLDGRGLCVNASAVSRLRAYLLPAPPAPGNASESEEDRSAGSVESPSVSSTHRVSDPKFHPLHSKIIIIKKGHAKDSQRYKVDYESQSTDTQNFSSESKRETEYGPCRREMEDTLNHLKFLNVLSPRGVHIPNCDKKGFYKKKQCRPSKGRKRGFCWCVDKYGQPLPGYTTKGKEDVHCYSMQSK
Chain of IGFBP-5-FLAG protein (full-length IGFBP-5 with the FLAG tag of SEQ ID NO: 12 at the C-terminus), P24593 (P24593 other isoform, or with tags, fused parts or gaps): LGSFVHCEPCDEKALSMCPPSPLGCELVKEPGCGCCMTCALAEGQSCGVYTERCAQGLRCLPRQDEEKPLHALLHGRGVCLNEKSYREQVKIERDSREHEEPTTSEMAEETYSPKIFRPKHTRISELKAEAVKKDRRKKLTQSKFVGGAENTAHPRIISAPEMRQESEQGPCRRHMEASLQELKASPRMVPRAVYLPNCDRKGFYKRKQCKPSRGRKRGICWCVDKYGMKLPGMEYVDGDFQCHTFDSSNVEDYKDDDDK

B1: MD8S-FLAG protein (extracellular region of human MD8, amino acids 1 to 646 of SEQ ID NO: 2, with a C-terminal FLAG tag) (protein)
chain: IAPSRPWALMEQYEVVLPRRLPGPRVRRALPSHLGLHPERVSYVLGATGHNFTLHLRKNRDLLGSGYTETYTAANGSEVTEQPRGQDHCFYQGHVEGYPDSAASLSTCAGLRGFFQVGSDLHLIEPLDEGGEGGRHAVYQAEHLLQTAGTCGVSDDSLGSLLGPRTAAVFRPRPGDSLPSRETRYVELYVVVDNAEFQMLGSEAAVRHRVLEVVNHVDKLYQKLNFRVVLVGLEIWNSQDRFHVSPDPSVTLENLLTWQARQRTRRHLHDNVQLITGVDFTGTTVGFARVSAMCSHSSGAVNQDHSKNPVGVACTMAHEMGHNLGMDHDENVQGCRCQERFEAGRCIMAGSIGSSFPRMFSDCSQAYLESFLERPQSVCLANAPDLSHLVGGPVCGNLFVERGEQCDCGPPEDCRNRCCNSTTCQLAEGAQCAHGTCCQECKVKPAGELCRPKKDMCDLEEFCDGRHPECPEDAFQENGTPCSGGYCYNGACPTLAQQCQAFWGPGGQAAEESCFSYDILPGCKASRYRADMCGVLQCKGGQQPLGRAICIVDVCHALTTEDGTAYEPVPEGTRCGPEKVCWKGRCQDLHVYRSSNCSAQCHNHGVCNHKQECHCHAGWAPPHCAKLLTEDYKDDDDK
Take B1: the “activity of digesting IGFBP-5 (overnight reaction at 37 C, SDS-PAGE and western blot)” value in data set [1] is recorded as “new plural bands within the range of 12 to 25 kDa were detected in the case of IGFBP-5”. Besides, the “activity of digesting recombinant IGFBP-5 (overnight reaction at 37 C, SDS-PAGE and western blot with biotinylated M2 antibody)” value in data set [2] is recorded as “recombinant IGFBP-5, which was detected in the control without the MD8S enzyme solution, was made to disappear by adding the MD8S enzyme solution”. In addition, the “activity of digesting IGFBP-3 (overnight reaction at 37 C, SDS-PAGE and western blot)” value in data set [3] is “a new band of 25 kDa was detected in the case of IGFBP-3”.
